Experimental data published in patent US12397037B2, “Methods and compositions for immunomodulation” (CHILDREN'S MEDICAL CENTER CORPORATION, priority 2014, dated 2025).

Assays:
Assay type in all cases: cell-based, human
[1] = tested on: U251 glioblastoma cells, a melanocyte cell line, Jurkat T lymphocytes, and endothelial cells; test: Western blot in other cell lines expressing NRP2; settings: SEMA3F 30 minutes
Procedure: FIGS. 34A-34D depict analysis of intracellular signaling pathway regulated by SEMA3F. FIG. 34A depicts a Western blot of the expression of pAkt, pmTOR and pS6K in U87MG cells treated with SEMA3F or PBS for 60 minutes and. FIG. 34B depicts a Western blot. U87MG cells were transfected with control or Plexin A1-specific siRNA (20 nM). After 48 hours, cells were treated with SEMA3F (640 ng/ml) for 30 and 60 minutes, and were analyzed by Western blot. FIG. 34C depicts NRP2 and Plexin A1 expression analyzed by Western blot with multiple cell lines. FIG. 34D depicts a Western blot of multiple NRP2-expressing cell lines were treated with SEMA3F for 30 minutes. All data presented are representative of 3 independent experiments.
(§1) SEMA3F inhibits Akt, mTOR, and S6K phosphorylation. To determine the effect of SEMA3F on intracellular signaling responses, levels of phosphokinases in the NRP2-expressing human glioblastoma cell line U87MG were profiled.
Western blotting: Proteins within each sample were separated by SDS-PAGE and transferred to nitrocellulose membranes. […] After washing with TBS-T, membranes were incubated with the appropriate horseradish peroxidase-conjugated secondary antibody, and immunoreactivity was detected by using ECL detection reagents.

RhoA = RhoA activity, rhotekin pull-down, U87MG cells; settings: SEMA3F 640 ng/ml, 10 minutes
Procedure: FIG. 30A depicts U87MG cells treated with SEMA3F (640 ng/ml), rapamycin (10 nM) or Torin 1 (10 nM) for 30 minutes. Subsequently, cells were stained with Alexa Fluor 488 phalloidin and Hoechst 33342 to identify F-actin cytoskeleton stress fibers and cellular nuclei, respectively. […] The scale bar indicates 20 μm. FIG. 30B depicts U87MG cells transiently transfected with a pcDNA3.1 empty vector or with a wild type (WT) mTOR plasmid and after 18 hours treated with SEMA3F (640 ng/ml) for 30 minutes. Cells were stained as described above in FIG. 30A. Representative cellular staining is shown; bar graph represents the number of fibers/cell (mean±SD) from 3 independent experiments. FIG. 30C depicts U87MG cells transfected with control siRNA or with raptor- or rictor-specific siRNAs (20 nM). […] The number of stress fibers was evaluated in 3 independent experiments and shown as the mean±SD. […] After 18 hours, the cells were treated with SEMA3F (640 ng/ml) for 10 minutes and RhoA activity was evaluated. FIG. 30E depicts U87MG cells transfected with control siRNA or with raptor- or rictor-specific siRNAs (20 nM), were treated with SEMA3F (640 ng/ml) for 10 minutes and RhoA activity was analyzed. […]
RhoA activity (39) was measured using the rhotekin pulldown assay in U87MG cells transfected with the mTOR overexpression construct (FIG. 30D). […]

PI-3K = test: PI3-Kinase Activity ELISA
Procedure: FIG. 28A depicts U87MG cells untreated (control) or following treatment with SEMA3F (640 ng/ml) for 30 minutes. Cell lysates were evaluated by phosphoprotein kinase antibody array. FIG. 28B depicts results of the array validated by Western blot analysis. FIG. 28C depicts U87MG cells treated with SEMA3F (640 ng/ml) as a time course up to 60 minutes and were analyzed by Western blot. FIGS. 28B-28C are representative of 3 independent experiments. FIG. 28D depicts U87MG, Jurkat and HUVEC cells treated with SEMA3F (200, 600, 1800 ng/ml, bars from left to right) for 15 minutes (grey bars) or 30 minutes (black bars); as a positive control, HUVEC were treated with VEGF-A (25 ng/ml) for 15 and 30 minutes. In addition, HUVEC were pre-treated with SEMA3F (1800 ng/ml) or PBS as a control for 30 minutes and subsequently VEGF-A (25 ng/ml) was added to the culture for 15 and 30 minutes. PI-3K activity was analyzed by ELISA according to the manufacturer's instructions. Data represent the mean±SD of 3 experiments.
as §1
The VEGF-A (DVE00) ELISA kit was obtained from R&D Systems (Minneapolis, MN). […]

B1: SEMA3F: Human recombinant full-length His-Myc-tagged SEMA3F, secreted by transfected 293T cells and purified; class 3 semaphorin, NRP-2 ligand (protein, listed as Homo sapiens)
chain: MLVAGLLLWASLLTGAWPSFPTQDHLPATPRVRLSFKELKATGTAHFFNFLLNTTDYRILLKDEDHDRMYVGSKDYVLSLDLHDINREPLIIHWAASPQRIEECVLSGKDVNGECGNFVRLIQPWNRTHLYVCGTGAYNPMCTYVNRGRRAQATPWTQTQAVRGRGSRATDGALRPMPTAPRQDYIFYLEPERLESGKGKCPYDPKLDTASALINEELYAGVYIDFMGTDAAIFRTLGKQTAMRTDQYNSRWLNDPSFIHAELIPDSAERNDDKLYFFFRERSAEAPQSPAVYARIGRICLNDDGGHCCLVNKWSTFLKARLVCSVPGEDGIETHFDELQDVFVQQTQDVRNPVIYAVFTSSGSVFRGSAVCVYSMADIRMVFNGPFAHKEGPNYQWMPFSGKMPYPRPGTCPGGTFTPSMKSTKDYPDEVINFMRSHPLMYQAVYPLQRRPLVVRTGAPYRLTTIAVDQVDAADGRYEVLFLGTDRGTVQKVIVLPKDDQELEELMLEEVEVFKDPAPVKTMTISSKRQQLYVASAVGVTHLSLHRCQAYGAACADCCLARDPYCAWDGQACSRYTASSKRRSRRQDVRHGNPIRQCRGFNSNANKNAVESVQYGVAGSAAFLECQPRSPQATVKWLFQRDPGDRRREIRAEDRFLRTEQGLLLRALQLSDRGLYSCTATENNFKHVVTRVQLHVLGRDAVHAALFPPLSMSAPPPPGAGPPTPPYQELAQLLAQPEVGLIHQYCQGYWRHVPPSPREAPGAPRSPEPQDQKKPRNRRHHPPDT
modifications: His-Myc tag
notes: Human recombinant full-length His-Myc-tagged SEMA3F, secreted by transfected 293T cells and purified; class 3 semaphorin, NRP-2 ligand
- Akt (S473) and S6K phosphorylation [1]: inhibited
- RhoA activity partially rescued (by) (RhoA; U87MG cells overexpressing mTOR): 55%
- suppression of RhoA activity (RhoA; control pcDNA3.1-transfected U87MG cells): 88%
- PI-3K activity (PI-3K; U87MG, Jurkat and HUVEC, SEMA3F 200, 600, 1800 ng/ml, 15 or 30 minutes): inhibited PI-3K activity
- VEGF-induced PI-3K activation (PI-3K; endothelial cells (HUVEC) pre-treated with SEMA3F 1800 ng/ml for 30 minutes, then VEGF-A 25 ng/ml): inhibited subsequent VEGF-induced PI-3K activation
